Assay results as given in the supplement of paper PMC9112550, “Optimization of the antimicrobial peptide Bac7 by deep mutational scanning” (BMC Biology, 2022).

The sequences below were run on Escherichia coli TOP10 (assay: shrunken log2 fold change of peptide-encoding DNA abundance (4.5 h post-induction vs induction); higher = less antimicrobial activity (less host growth inhibition)). Details: time post-induction: 4.5 h; library: site-saturation at positions 5, 18, 19, 20.
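Also: peptides expressed intracellularly from a pBAD plasmid library in pooled LB shake-flask culture, induced with 0.3% L-arabinose, DNA abundance read by NGS, three biological replicates, DESeq2 with apeglm shrinkage.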

| Sequence | shrunken log2 fold change |
| --- | --- |
| RRIRERPPRLPRPRPRPWDKPRP | -0.00884 |
| RRIRERPPRLPRPRPRPWFVPRP | -0.463 |
| RRIRERPPRLPRPRPRPWGDPRP | 0.108 |
| RRIRERPPRLPRPRPRPWHWPRP | -0.0299 |
| RRIRERPPRLPRPRPRPWIEPRP | -0.206 |
| RRIRERPPRLPRPRPRPWMIPRP | -0.616 |
| RRIRERPPRLPRPRPRPWMMPRP | -0.139 |
| RRIRERPPRLPRPRPRPWNEPRP | -0.351 |
| RRIRERPPRLPRPRPRPWPCPRP | 0.151 |
| RRIRERPPRLPRPRPRPWPKPRP | -0.102 |
| RRIRERPPRLPRPRPRPWPTPRP | 0.549 |
| RRIRERPPRLPRPRPRPWQPPRP | 0.0778 |
| RRIRERPPRLPRPRPRPWSNPRP | -0.0583 |
| RRIRERPPRLPRPRPRPWVSPRP | -0.0377 |
| RRIRERPPRLPRPRPRPWVTPRP | -0.0915 |
| RRIRERPPRLPRPRPRPYCDPRP | -0.0156 |
| RRIRERPPRLPRPRPRPYDFPRP | -0.0231 |
| RRIRERPPRLPRPRPRPYDRPRP | 0.0251 |
| RRIRERPPRLPRPRPRPYFFPRP | -0.587 |
| RRIRERPPRLPRPRPRPYFKPRP | -0.258 |
| RRIRERPPRLPRPRPRPYFPPRP | -0.307 |
| RRIRERPPRLPRPRPRPYFWPRP | -0.143 |
| RRIRERPPRLPRPRPRPYGDPRP | -0.218 |
| RRIRERPPRLPRPRPRPYICPRP | -0.486 |
| RRIRERPPRLPRPRPRPYIIPRP | -0.837 |

| Sequence | shrunken log2 fold change |
| --- | --- |
| RRIRERPPRLPRPRPRPYKGPRP | -0.0341 |
| RRIRERPPRLPRPRPRPYKKPRP | 0.0359 |
| RRIRERPPRLPRPRPRPYKVPRP | -0.0366 |
| RRIRERPPRLPRPRPRPYLFPRP | -0.137 |
| RRIRERPPRLPRPRPRPYMWPRP | -0.452 |
| RRIRERPPRLPRPRPRPYNHPRP | -0.272 |
| RRIRERPPRLPRPRPRPYPQPRP | -0.898 |
| RRIRERPPRLPRPRPRPYQGPRP | -0.199 |
| RRIRERPPRLPRPRPRPYQMPRP | -0.448 |
| RRIRERPPRLPRPRPRPYRCPRP | -0.0874 |
| RRIRERPPRLPRPRPRPYRMPRP | -0.113 |
| RRIRERPPRLPRPRPRPYSFPRP | -0.0431 |
| RRIRERPPRLPRPRPRPYTEPRP | 0.0251 |
| RRIRERPPRLPRPRPRPYTMPRP | -0.0431 |
| RRIRERPPRLPRPRPRPYVPPRP | -0.0961 |
| RRIRERPPRLPRPRPRPYWGPRP | -0.346 |
| RRIRFRPPRLPRPRPRPAAWPRP | 0.28 |
| RRIRFRPPRLPRPRPRPACHPRP | -0.0466 |
| RRIRFRPPRLPRPRPRPADCPRP | -0.282 |
| RRIRFRPPRLPRPRPRPAEEPRP | 0.105 |
| RRIRFRPPRLPRPRPRPAEIPRP | -0.228 |
| RRIRFRPPRLPRPRPRPAFEPRP | 0.226 |
| RRIRFRPPRLPRPRPRPAFVPRP | -0.028 |
| RRIRFRPPRLPRPRPRPAGEPRP | 0.191 |
| RRIRFRPPRLPRPRPRPAGGPRP | 0.382 |

| Sequence | shrunken log2 fold change |
| --- | --- |
| RRIRFRPPRLPRPRPRPAGTPRP | -0.0142 |
| RRIRFRPPRLPRPRPRPAHDPRP | 0.0907 |
| RRIRFRPPRLPRPRPRPAILPRP | 0.0816 |
| RRIRFRPPRLPRPRPRPALAPRP | 0.257 |
| RRIRFRPPRLPRPRPRPAMRPRP | 0.307 |
| RRIRFRPPRLPRPRPRPAMVPRP | -0.149 |
| RRIRFRPPRLPRPRPRPAMWPRP | 0.0848 |
| RRIRFRPPRLPRPRPRPANIPRP | -0.0774 |
| RRIRFRPPRLPRPRPRPANQPRP | -0.165 |
| RRIRFRPPRLPRPRPRPANWPRP | 0.166 |
| RRIRFRPPRLPRPRPRPAPMPRP | 0.282 |
| RRIRFRPPRLPRPRPRPAPWPRP | 0.592 |
| RRIRFRPPRLPRPRPRPAQGPRP | -0.00447 |
| RRIRFRPPRLPRPRPRPARAPRP | 1.31 |
| RRIRFRPPRLPRPRPRPARMPRP | 0.296 |
| RRIRFRPPRLPRPRPRPASKPRP | 0.0916 |
| RRIRFRPPRLPRPRPRPASLPRP | -0.227 |
| RRIRFRPPRLPRPRPRPATTPRP | -0.0275 |
| RRIRFRPPRLPRPRPRPAVFPRP | 0.259 |
| RRIRFRPPRLPRPRPRPAVRPRP | -0.0627 |
| RRIRFRPPRLPRPRPRPAWRPRP | 0.765 |
| RRIRFRPPRLPRPRPRPAYFPRP | -0.108 |
| RRIRFRPPRLPRPRPRPAYSPRP | 0.00204 |
| RRIRFRPPRLPRPRPRPCASPRP | -0.315 |
| RRIRFRPPRLPRPRPRPCCQPRP | -0.439 |

| Sequence | shrunken log2 fold change |
| --- | --- |
| RRIRFRPPRLPRPRPRPCCYPRP | -0.251 |
| RRIRFRPPRLPRPRPRPCDNPRP | -0.0843 |
| RRIRFRPPRLPRPRPRPCDVPRP | 0.0119 |
| RRIRFRPPRLPRPRPRPCEFPRP | 0.0635 |
| RRIRFRPPRLPRPRPRPCFGPRP | -0.0611 |
| RRIRFRPPRLPRPRPRPCFVPRP | -0.578 |
| RRIRFRPPRLPRPRPRPCINPRP | -0.0523 |
| RRIRFRPPRLPRPRPRPCLHPRP | -0.542 |
| RRIRFRPPRLPRPRPRPCLIPRP | -0.448 |
| RRIRFRPPRLPRPRPRPCMAPRP | -0.594 |
| RRIRFRPPRLPRPRPRPCMQPRP | -0.163 |
| RRIRFRPPRLPRPRPRPCQHPRP | -0.397 |
| RRIRFRPPRLPRPRPRPCQPPRP | -0.134 |
| RRIRFRPPRLPRPRPRPCRMPRP | -0.168 |
| RRIRFRPPRLPRPRPRPCRYPRP | -0.0124 |
| RRIRFRPPRLPRPRPRPCSCPRP | -0.879 |
| RRIRFRPPRLPRPRPRPCVHPRP | 0.00355 |
| RRIRFRPPRLPRPRPRPCWNPRP | 0.151 |
| RRIRFRPPRLPRPRPRPCYQPRP | -0.229 |
| RRIRFRPPRLPRPRPRPCYVPRP | -0.0693 |
| RRIRFRPPRLPRPRPRPDCKPRP | 0.154 |
| RRIRFRPPRLPRPRPRPDCRPRP | -0.309 |
| RRIRFRPPRLPRPRPRPDDVPRP | -0.0133 |
| RRIRFRPPRLPRPRPRPDEQPRP | 0.00595 |
| RRIRFRPPRLPRPRPRPDETPRP | 0.145 |

| Sequence | shrunken log2 fold change |
| --- | --- |
| RRIRFRPPRLPRPRPRPDGAPRP | -0.0432 |
| RRIRFRPPRLPRPRPRPDGIPRP | -0.255 |
| RRIRFRPPRLPRPRPRPDHQPRP | -0.147 |
| RRIRFRPPRLPRPRPRPDIGPRP | -0.0309 |
| RRIRFRPPRLPRPRPRPDKRPRP | -0.0786 |
| RRIRFRPPRLPRPRPRPDLTPRP | -0.181 |
| RRIRFRPPRLPRPRPRPDLYPRP | -0.053 |
| RRIRFRPPRLPRPRPRPDMMPRP | -0.0389 |
| RRIRFRPPRLPRPRPRPDMQPRP | -0.313 |
| RRIRFRPPRLPRPRPRPDNPPRP | -0.0747 |
| RRIRFRPPRLPRPRPRPDPCPRP | -0.191 |
| RRIRFRPPRLPRPRPRPDPIPRP | 0.159 |
| RRIRFRPPRLPRPRPRPDPSPRP | -0.323 |
| RRIRFRPPRLPRPRPRPDQKPRP | -0.0128 |
| RRIRFRPPRLPRPRPRPDQRPRP | -0.325 |
| RRIRFRPPRLPRPRPRPDSEPRP | 0.104 |
| RRIRFRPPRLPRPRPRPDSFPRP | -0.00668 |
| RRIRFRPPRLPRPRPRPDSTPRP | -0.596 |
| RRIRFRPPRLPRPRPRPDTCPRP | -0.21 |
| RRIRFRPPRLPRPRPRPDTFPRP | -0.144 |
| RRIRFRPPRLPRPRPRPDTIPRP | -0.498 |
| RRIRFRPPRLPRPRPRPDTRPRP | -0.324 |
| RRIRFRPPRLPRPRPRPDWDPRP | 0.124 |
| RRIRFRPPRLPRPRPRPDWFPRP | -0.32 |
| RRIRFRPPRLPRPRPRPDWKPRP | 0.0379 |

| Sequence | shrunken log2 fold change |
| --- | --- |
| RRIRFRPPRLPRPRPRPDWRPRP | 0.0737 |
| RRIRFRPPRLPRPRPRPECYPRP | -0.155 |
| RRIRFRPPRLPRPRPRPEDDPRP | -0.18 |
| RRIRFRPPRLPRPRPRPEELPRP | 0.0201 |
| RRIRFRPPRLPRPRPRPEFEPRP | 0.122 |
| RRIRFRPPRLPRPRPRPEFQPRP | 0.0542 |
| RRIRFRPPRLPRPRPRPEGMPRP | -0.0976 |
| RRIRFRPPRLPRPRPRPEIVPRP | -0.0888 |
| RRIRFRPPRLPRPRPRPEKKPRP | 0.0265 |
| RRIRFRPPRLPRPRPRPELCPRP | 0.193 |
| RRIRFRPPRLPRPRPRPELFPRP | 0.15 |
| RRIRFRPPRLPRPRPRPELIPRP | -0.308 |
| RRIRFRPPRLPRPRPRPEMFPRP | 0.099 |
| RRIRFRPPRLPRPRPRPEMPPRP | -0.142 |
| RRIRFRPPRLPRPRPRPEMQPRP | 0.0943 |
| RRIRFRPPRLPRPRPRPENIPRP | 0.0737 |
| RRIRFRPPRLPRPRPRPENPPRP | -0.0301 |
| RRIRFRPPRLPRPRPRPESNPRP | 0.224 |
| RRIRFRPPRLPRPRPRPETDPRP | 0.114 |
| RRIRFRPPRLPRPRPRPETHPRP | -0.0779 |
| RRIRFRPPRLPRPRPRPEVVPRP | 0.723 |
| RRIRFRPPRLPRPRPRPEWAPRP | 0.398 |
| RRIRFRPPRLPRPRPRPEWQPRP | -0.00149 |
| RRIRFRPPRLPRPRPRPEWSPRP | 0.219 |
| RRIRFRPPRLPRPRPRPEYCPRP | 0.0467 |
